Experimental data taken from paper PMC12232663, “Molecular contacts in self-assembling clusters of membrane proteins” (Proceedings of the National Academy of Sciences of the …, 2025).

Molecular target: the molecule itself
Test: cryo-EM structure; single-particle reconstruction of purified channel reconstituted into POPC vesicles (protein:lipid 1:20, 10 mM Tris pH 8.0, 150 mM KCl); C4-symmetric map; monomers to tetramer

B1: Human HCN1 with a C-terminal truncation (residues 636 to 865) (natural protein, UniProt O60741 1-890, looked up)
chain: MEGGGKPNSSSNSRDDGNSVFPAKASATGAGPAAAEKRLGTPPGGGGAGAKEHGNSVCFKVDGGGGGGGGGGGGEEPAGGFEDAEGPRRQYGFMQRQFTSMLQPGVNKFSLRMFGSQKAVEKEQERVKTAGFWIIHPYSDFRFYWDLIMLIMMVGNLVIIPVGITFFTEQTTTPWIIFNVASDTVFLLDLIMNFRTGTVNEDSSEIILDPKVIKMNYLKSWFVVDFISSIPVDYIFLIVEKGMDSEVYKTARALRIVRFTKILSLLRLLRLSRLIRYIHQWEEIFHMTYDLASAVVRIFNLIGMMLLLCHWDGCLQFLVPLLQDFPPDCWVSLNEMVNDSWGKQYSYALFKAMSHMLCIGYGAQAPVSMSDLWITMLSMIVGATCYAMFVGHATALIQSLDSSRRQYQEKYKQVEQYMSFHKLPADMRQKIHDYYEHRYQGKIFDEENILNELNDPLREEIVNFNCRKLVATMPLFANADPNFVTAMLSKLRFEVFQPGDYIIREGAVGKKMYFIQHGVAGVITKSSKEMKLTDGSYFGEICLLTKGRRTASVRADTYCRLYSLSVDNFNEVLEEYPMMRRAFETVAIDRLDRIGKKNSILLQKFQKDLNTGVFNNQENEILKQIVKHDREMVQAALPRESSSVLNTDPDAEKPRFASNL
notes: source: HEK293S GnTI- cells (BacMam), purified (GFP-nanobody resin, SEC in LMNG:CHS), reconstituted into POPC vesicles
B1 was tested, and the “stoichiometry N” value was 4.
